Data: patent US6699969 (University of California, dated 2004)

B1: baculovirus-expressed S. purpuratus katanin p60 subunit with N-terminal His(6) tag (enzyme, not shown: small tags and cut ends)
chain: MSVDEICENTKMGREYALLGNYETSLVYYQGVLQQIQKLLTSVHEPQRKHQWQTIRQELSQEYEHVKNITKTLNGFKSEPAAPEPAPNHGRAAPFSHHQHAAKPAAAEPARDPDVWPPPTPVDHRPSPPYQRAARKDPPRRSEPSKPANRAPGNDRGGRGPSDRRGDARSGGGGRGGARGSDKDKNRGGKSDKDKKAPSGEEGDEKKFDPAGYDKDLVENLERDIVQRNPNVHWADIAGLTEAKRLLEEAVVLPLWMPDYFKGIRRPWKGVLMVGPPGTGKTMLAKAVATECGTTFFNVSSASLTSKYHGESEKLVRLLFEMARFYAPSTIFIDEIDSICSKRGTGSEHEASRRVKSELLIQMDGVSGPSAGEESSKMVMVLAATNFPWDIDEALRRRLEKRIYIPLPEIDGREQLLRINLKEVPLADDIDLKSIAEKMDGYSGADITNVCRDASMMAMRRRIQGLRPEEIRHIPKEELNQPSTPADFLLALQKVSKSVGKEDLVKYMAWMEEFGSV
notes: Expressed in Sf9 cells and purified on Ni-NTA; also called p60 katanin; recombinant p60
B2: p80 delta 303-690, C-terminal truncation of S. purpuratus p80 katanin containing only the WD40 domain, with N-terminal S-Tag (other)
chain: MATKRAWKLQELVAHSSNVNCLALGPMSGRVMVTGGEDKKVNLWAVGKQNCIISLSGHTSPVDSVKFNSSEELVVAGSQSGTMKIYDLEPAKIVRTLTGHRNSIRCMDFHPFGEFVASGSTDTNVKLWDVRRKGCIYTYKGHSDQVNMIKFSPDGKWLVTASEDTTIKLWDLTMGKLFQEFKNHTGGVTGIEFHPNEFLLASGSSDRTVQFWDLETFQLVSSTSPGASAVRSISFHPDGSYLFCSSQDMLHAFGWEPIRCFDTFSVFWGKVADTVIASTQLIGASFNATNVSVYVADLSRMS
notes: not shown: 37 amino acid N-terminal S-Tag from pCITE-4a+
B3: in vitro translated S. purpuratus p60 katanin with 37 amino acid N-terminal S-Tag (enzyme)
chain: B1 chain
notes: Made in a rabbit reticulocyte transcription-translation reaction; not shown: 37 amino acid N-terminal S-Tag from pCITE-4a+

What was measured:
[1] = target: T1, baculovirus-expressed S. purpuratus katanin p80 subunit with N-terminal His(6) tag (Strongylocentrotus purpuratus, UniProt O61585 1-690); assay: co-expression in insect cells, metal affinity purification, Coomassie staining
T1 construct: Expressed in Sf9 cells and purified on Ni-NTA; GenBank AF052433; also called p80 katanin; recombinant p80
T1 sequence: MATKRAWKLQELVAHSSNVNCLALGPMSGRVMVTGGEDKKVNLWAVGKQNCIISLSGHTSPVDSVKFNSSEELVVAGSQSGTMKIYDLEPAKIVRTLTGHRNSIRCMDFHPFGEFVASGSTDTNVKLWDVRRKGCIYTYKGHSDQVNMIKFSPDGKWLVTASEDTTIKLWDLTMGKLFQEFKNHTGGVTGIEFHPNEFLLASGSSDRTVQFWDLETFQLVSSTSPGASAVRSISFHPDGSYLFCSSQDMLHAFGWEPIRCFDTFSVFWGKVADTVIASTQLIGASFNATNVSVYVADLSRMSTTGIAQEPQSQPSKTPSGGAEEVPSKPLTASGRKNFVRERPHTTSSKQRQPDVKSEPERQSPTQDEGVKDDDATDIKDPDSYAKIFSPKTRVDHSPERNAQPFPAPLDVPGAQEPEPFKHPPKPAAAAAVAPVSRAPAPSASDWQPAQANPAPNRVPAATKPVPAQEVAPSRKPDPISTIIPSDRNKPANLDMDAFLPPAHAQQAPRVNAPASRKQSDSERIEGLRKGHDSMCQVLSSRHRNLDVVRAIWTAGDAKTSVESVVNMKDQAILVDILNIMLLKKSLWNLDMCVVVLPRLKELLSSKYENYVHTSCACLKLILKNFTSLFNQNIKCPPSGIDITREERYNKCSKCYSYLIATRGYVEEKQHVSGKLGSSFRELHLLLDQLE
Description: 6×His-tagged katanin subunits were purified from lysates of baculovirus-infected insect cells by binding to Ni^2+-NTA Superflow followed by elution with imidazole, as described in the Experimental Procedures. […] Proteins bound to the resin were analyzed by SDS-PAGE followed by staining with Coomassie.
Deciphering the roles of the two katanin subunits is essential for understanding the enzyme's mechanism and biological activities. […] We therefore sought to express the two subunits together and separately and then test their enzymatic activities.

[2] = target: the molecule itself; assay: rotary-shadowing electron microscopy of recombinant p60
[3] = target: B3; assay: in vitro co-translation, immunoprecipitation with anti-p60 antibody, S-protein HRP blot
Description: (§1) In vitro synthesis of proteins directly from plasmid DNAs was accomplished using the Single Tube Protein System 2, T7 (Novagen). […] For immunoprecipitations, lysates were incubated on ice with Pansorbin (Calbiochem)-antibody complexes, washed in NET buffer (50 mM Tris-Cl (pH 7.5), 150 mM NaCl, 0.1% Nonidet P-40, 1 mM EDTA (pH 8.0), 0.25% gelatin 0.02% sodium azide), then resuspended in SDS-PAGE sample buffer. In vitro translation products in both the pellets and supernatants from the immunoprecipitations were resolved by SDS-PAGE, transferred to nitrocellulose, probed with S-protein HRP conjugate (Novagen) and detected by chemiluminescence.

[4] = target: T2, p80 delta 560-690, S. purpuratus p80 katanin deletion lacking the C-terminal 130 amino acids, with N-terminal … (Strongylocentrotus purpuratus, UniProt O61585 1-559); assay: as above
T2 construct: Residues 560-690 deleted by the construct's name; The text says 'C-terminal 130 amino acids', but 560-690 counts 131 residues; also called 560-690 deletion derivative of p80; not shown: 37 amino acid N-terminal S-Tag from pCITE-4a+
T2 sequence: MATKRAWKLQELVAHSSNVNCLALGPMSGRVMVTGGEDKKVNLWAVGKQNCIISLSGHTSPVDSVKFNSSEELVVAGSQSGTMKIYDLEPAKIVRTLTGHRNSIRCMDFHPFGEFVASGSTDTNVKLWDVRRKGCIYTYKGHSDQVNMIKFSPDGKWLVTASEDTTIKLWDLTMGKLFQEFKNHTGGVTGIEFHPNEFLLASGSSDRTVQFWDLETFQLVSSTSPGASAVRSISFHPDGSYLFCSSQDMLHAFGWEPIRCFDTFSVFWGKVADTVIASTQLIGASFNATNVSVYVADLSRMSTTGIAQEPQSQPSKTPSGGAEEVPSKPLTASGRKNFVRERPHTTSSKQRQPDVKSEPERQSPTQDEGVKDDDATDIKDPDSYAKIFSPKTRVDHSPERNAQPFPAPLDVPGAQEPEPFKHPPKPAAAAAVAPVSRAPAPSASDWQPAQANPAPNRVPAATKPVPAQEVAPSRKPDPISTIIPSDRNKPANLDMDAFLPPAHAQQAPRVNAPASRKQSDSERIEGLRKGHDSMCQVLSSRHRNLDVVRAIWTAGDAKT
Description: as §1

Binder: B1
- p60:p80 molar ratio in the co-purified protein [1]: ~0.9 mol p80 per 1.0 mol p60
- binding result [2]: binds

Binder: B2
- binding result [3]: no binding

Binder: B3
- binding result [4]: no binding
